{
  "source": "ChEMBL document CHEMBL2074064",
  "about": "“Uptake of cyclic dipeptide by PEPT1 in Caco-2 cells: phenolic hydroxyl group of substrate enhances affinity for PEPT1” (J Pharm Pharmacol, 2002)",
  "type_in_all_cases": "functional, cell-based",
  "key": {"[1]": {"substrate": "O=C1N[C@@H](Cc2ccc(O)cc2)C(=O)N[C@H]1CO", "test": "(§1) TP_TRANSPORTER: uptake in Caco-2 cells"}, "[2]": {"substrate": "O=C1CNC(=O)[C@H](Cc2ccc(O)cc2)N1", "test": "as §1"}, "[3]": {"substrate": "O=C1CNC(=O)[C@H](Cc2ccccc2)N1", "test": "as §1"}, "[4]": {"substrate": "O=C1N[C@@H](Cc2ccccc2)C(=O)N[C@H]1CO", "test": "as §1"}},
  "data": [
    {"protein": "Solute carrier family 15 member 1 (Homo sapiens), P46059 (protein) MGMSKSHSFFGYPLSIFFIVVNEFCERFSYYGMRAILILYFTNFISWDDNLSTAIYHTFVALCYLTPILGALIADSWLGKFKTIVSLSIVYTIGQAVTSVSSINDLTDHNHDGTPDSLPVHVVLSLIGLALIALGTGGIKPCVSAFGGDQFEEGQEKQRNRFFSIFYLAINAGSLLSTIITPMLRVQQCGIHSKQACYPLAFGVPAALMAVALIVFVLGSGMYKKFKPQGNIMGKVAKCIGFAIKNRFRHRSKAFPKREHWLDWAKEKYDERLISQIKMVTRVMFLYIPLPMFWALFDQQGSRWTLQATTMSGKIGALEIQPDQMQTVNAILIVIMVPIFDAVLYPLIAKCGFNFTSLKKMAVGMVLASMAFVVAAIVQVEIDKTLPVFPKGNEVQIKVLNIGNNTMNISLPGEMVTLGPMSQTNAFMTFDVNKLTRINISSPGSPVTAVTDDFKQGQRHTLLVWAPNHYQVVKDGLNQKPEKGENGIRFVNTFNELITITMSGKVYANISSYNASTYQFFPSGIKGFTISSTEIPPQCQPNFNTFYLEFGSAYTYIVQRKNDSCPEVKVFEDISANTVNMALQIPQYFLLTCGEVVFSVTGLEFSYSQAPSNMKSVLQAGWLLTVAVGNIIVLIVAGAGQFSKQWAEYILFAALLLVVCVIFAIMARFYTYINPAEIEAQFDEDEKKNRLEKSNPYFMSGANSQKQM", "values": [
      {"measurement": "Km", "setting": "[1]", "result": 21.9, "unit": "µM"},
      {"measurement": "Km", "setting": "[2]", "result": 62.9, "unit": "µM"},
      {"measurement": "Km", "setting": "[3]", "result": 90.9, "unit": "µM"},
      {"measurement": "Km", "setting": "[4]", "result": 118, "unit": "µM"}
    ]}
  ]
}
